Source: paper PMC6053526

Legend:
Experiment in all cases: EMSA
Conditions in all cases: 5x buffer (3 uL in 14 uL): 20% glycerol, 5 mM MgCl2, 2.5 mM EDTA, 2.5 mM DTT, 250 mM NaCl, 50 mM Tris-HCl pH 7.5, 0.25 mg/ml poly(dI-dC); 0.5 ug protein; 10 min
[1] = biological target: T1, TGA2-His (Arabidopsis thaliana) (UniProt P43273)
T1 sequence: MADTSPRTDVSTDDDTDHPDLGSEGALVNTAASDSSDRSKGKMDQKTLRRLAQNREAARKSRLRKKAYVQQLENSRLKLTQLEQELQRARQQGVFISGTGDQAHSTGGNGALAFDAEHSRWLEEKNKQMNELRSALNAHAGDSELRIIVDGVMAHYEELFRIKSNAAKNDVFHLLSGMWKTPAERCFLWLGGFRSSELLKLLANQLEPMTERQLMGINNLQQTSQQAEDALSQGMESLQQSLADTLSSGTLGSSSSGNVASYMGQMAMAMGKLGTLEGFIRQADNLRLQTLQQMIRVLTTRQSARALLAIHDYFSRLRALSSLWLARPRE

[2] = biological target: GST-AtWRKY50-C (Arabidopsis thaliana) (UniProt Q8VWQ5)
Chain of GST-AtWRKY50-C (Arabidopsis thaliana) (Q8VWQ5 86-173): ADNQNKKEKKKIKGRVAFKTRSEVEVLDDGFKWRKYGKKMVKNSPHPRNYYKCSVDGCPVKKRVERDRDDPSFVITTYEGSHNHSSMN

[3] = biological target: GST-AtWRKY50-C;TGA2-His (Arabidopsis thaliana;Arabidopsis thaliana) (UniProt Q8VWQ5+P43273)
Chain of GST-AtWRKY50-C;TGA2-His (Arabidopsis thaliana;Arabidopsis thaliana) (Q8VWQ5 86-173, one chain of several): as the sequence (Q8VWQ5 86-173) above

**Q.** Which results are given for “ATCGGATCCGGTGATCTATTGACTGTTTCTCTACGTCACTATTTTACTTACGTCATAGATGTGGCGGCATATA (double strand) [ABC]”?
**A.** binding [1]: binds; binding [2]: binds

**Q.** With “CATCTATTGCGTAAGTAAAATAGTGACGTAGAGAAACAGTCAATAGATCACCGGATCCGAT (double strand) [ABCm2]” as the sequence, how does the binding [1] read?
**A.** Its binding is “binds more weakly”.

**Q.** For “TTTCTCTACGTCACTATTTTACTTACGTCATAGATGTGGCGGCATATATTCTTCAGGACTTTTCAGATCTAGGC (double strand) [BCD]”, which binding [1] is on record?
**A.** Its binding is “binds”.

**Q.** What about the binding [2] of the same sequence?
**A.** Its binding is “binds”.

**Q.** What about the binding [3] of the same sequence?
**A.** Its binding is “binds”.

**Q.** Which binding [1] does the source give for “CTCTACGCAACTATTTTACTTACGTCATAGATGTGGCGGCATATATTCTTCAGGACTTTTCAGATCTAGGC (double strand) [BCDm1]” here?
**A.** Its binding is “binds”.

**Q.** What about the binding [3] of the same sequence?
**A.** The binding was “binds”.
